The values below are quoted from earlier work in article PMC4464844.

The pKa is the pH at which an ionisable group is half protonated.

Series [1] addresses Tyr9 (UniProt position 9, KPKLHYFNGRG).
Series [2] has as its target Tyr9 (UniProt position 9, RPKLHYPNGRG).
Series [3] has as its target Tyr9 (UniProt position 9, KPKLHYFNARG).

Take “Glutathione transferase A1-1 GIMFhelix mutant (Homo sapiens; A12G;L107I;L108M;V111F;residues 208-222 replaced by the GSTA4-4 sequence)”: in the series with Tyr9 [1], the pKa is reported as 7.3.
Take “Glutathione transferase A4-4 (hGSTA4-4) (Homo sapiens)”: in the series with Tyr9 [2], the pKa is 6.7.
Take “Glutathione transferase A1-1 (hGSTA1-1) (Homo sapiens)”: the pKa with Tyr9 [3] is 8.1.
